Experimental data as given in patent publication US20220298218A1 (ANTAG THERAPEUTICS, published 2022).
Where no end group is shown, it is not given here. The star is where a group is joined. C16 diacid = O=C(O)CCCCCCCCCCCCCCC(=O)*

T1: human GIP receptor (human, UniProt P48546 22-466)
T1 sequence (looked up): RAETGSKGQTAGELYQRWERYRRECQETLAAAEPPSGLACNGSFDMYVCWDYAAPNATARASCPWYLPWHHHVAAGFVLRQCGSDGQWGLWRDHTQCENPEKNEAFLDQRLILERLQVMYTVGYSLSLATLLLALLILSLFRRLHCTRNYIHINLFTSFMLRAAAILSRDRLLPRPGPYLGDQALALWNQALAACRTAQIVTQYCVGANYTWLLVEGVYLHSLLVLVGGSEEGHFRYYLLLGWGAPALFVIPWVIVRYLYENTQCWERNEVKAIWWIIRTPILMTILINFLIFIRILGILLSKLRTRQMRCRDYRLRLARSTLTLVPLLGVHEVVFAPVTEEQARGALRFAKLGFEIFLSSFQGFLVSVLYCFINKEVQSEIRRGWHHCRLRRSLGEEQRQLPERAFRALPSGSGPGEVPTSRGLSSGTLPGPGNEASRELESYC

B1: AT466 (peptide)
peptide: FISDYSIAMDKIK(C16 diacid)QQDFVNWLLAQKGKKNDWKHNITQ-OH
modifications: N-terminus assumed
SMILES: CC[C@H](C)[C@H](NC(=O)[C@H](CO)NC(=O)[C@H](Cc1ccc(O)cc1)NC(=O)[C@H](CC(=O)O)NC(=O)[C@H](CO)NC(=O)[C@@H](NC(=O)[C@@H](N)Cc1ccccc1)[C@@H](C)CC)C(=O)N[C@@H](C)C(=O)N[C@@H](CCSC)C(=O)N[C@@H](CC(=O)O)C(=O)N[C@@H](CCCCN)C(=O)N[C@H](C(=O)N[C@@H](CCCCNC(=O)CCCCCCCCCCCCCCC(=O)O)C(=O)N[C@@H](CCC(N)=O)C(=O)N[C@@H](CCC(N)=O)C(=O)N[C@@H](CC(=O)O)C(=O)N[C@@H](Cc1ccccc1)C(=O)N[C@H](C(=O)N[C@@H](CC(N)=O)C(=O)N[C@@H](Cc1c[nH]c2ccccc12)C(=O)N[C@@H](CC(C)C)C(=O)N[C@@H](CC(C)C)C(=O)N[C@@H](C)C(=O)N[C@@H](CCC(N)=O)C(=O)N[C@@H](CCCCN)C(=O)NCC(=O)N[C@@H](CCCCN)C(=O)N[C@@H](CCCCN)C(=O)N[C@@H](CC(N)=O)C(=O)N[C@@H](CC(=O)O)C(=O)N[C@@H](Cc1c[nH]c2ccccc12)C(=O)N[C@@H](CCCCN)C(=O)N[C@@H](Cc1c[nH]cn1)C(=O)N[C@@H](CC(N)=O)C(=O)N[C@H](C(=O)N[C@H](C(=O)N[C@@H](CCC(N)=O)C(=O)O)[C@@H](C)O)[C@@H](C)CC)C(C)C)[C@@H](C)CC
B2: AT464 (peptide)
peptide: FISDYSIAMDKIK(C16 diacid)QQDFVNWLLAQKGKKNDW-OH
modifications: N-terminus assumed
SMILES: CC[C@H](C)[C@H](NC(=O)[C@H](CO)NC(=O)[C@H](Cc1ccc(O)cc1)NC(=O)[C@H](CC(=O)O)NC(=O)[C@H](CO)NC(=O)[C@@H](NC(=O)[C@@H](N)Cc1ccccc1)[C@@H](C)CC)C(=O)N[C@@H](C)C(=O)N[C@@H](CCSC)C(=O)N[C@@H](CC(=O)O)C(=O)N[C@@H](CCCCN)C(=O)N[C@H](C(=O)N[C@@H](CCCCNC(=O)CCCCCCCCCCCCCCC(=O)O)C(=O)N[C@@H](CCC(N)=O)C(=O)N[C@@H](CCC(N)=O)C(=O)N[C@@H](CC(=O)O)C(=O)N[C@@H](Cc1ccccc1)C(=O)N[C@H](C(=O)N[C@@H](CC(N)=O)C(=O)N[C@@H](Cc1c[nH]c2ccccc12)C(=O)N[C@@H](CC(C)C)C(=O)N[C@@H](CC(C)C)C(=O)N[C@@H](C)C(=O)N[C@@H](CCC(N)=O)C(=O)N[C@@H](CCCCN)C(=O)NCC(=O)N[C@@H](CCCCN)C(=O)N[C@@H](CCCCN)C(=O)N[C@@H](CC(N)=O)C(=O)N[C@@H](CC(=O)O)C(=O)N[C@@H](Cc1c[nH]c2ccccc12)C(=O)O)C(C)C)[C@@H](C)CC
B3: AT465 (peptide)
peptide: FISDYSIAMDKIK(C16 diacid)QQDFVNWLLAQKGKKNDWKHN-OH
modifications: N-terminus assumed
SMILES: CC[C@H](C)[C@H](NC(=O)[C@H](CO)NC(=O)[C@H](Cc1ccc(O)cc1)NC(=O)[C@H](CC(=O)O)NC(=O)[C@H](CO)NC(=O)[C@@H](NC(=O)[C@@H](N)Cc1ccccc1)[C@@H](C)CC)C(=O)N[C@@H](C)C(=O)N[C@@H](CCSC)C(=O)N[C@@H](CC(=O)O)C(=O)N[C@@H](CCCCN)C(=O)N[C@H](C(=O)N[C@@H](CCCCNC(=O)CCCCCCCCCCCCCCC(=O)O)C(=O)N[C@@H](CCC(N)=O)C(=O)N[C@@H](CCC(N)=O)C(=O)N[C@@H](CC(=O)O)C(=O)N[C@@H](Cc1ccccc1)C(=O)N[C@H](C(=O)N[C@@H](CC(N)=O)C(=O)N[C@@H](Cc1c[nH]c2ccccc12)C(=O)N[C@@H](CC(C)C)C(=O)N[C@@H](CC(C)C)C(=O)N[C@@H](C)C(=O)N[C@@H](CCC(N)=O)C(=O)N[C@@H](CCCCN)C(=O)NCC(=O)N[C@@H](CCCCN)C(=O)N[C@@H](CCCCN)C(=O)N[C@@H](CC(N)=O)C(=O)N[C@@H](CC(=O)O)C(=O)N[C@@H](Cc1c[nH]c2ccccc12)C(=O)N[C@@H](CCCCN)C(=O)N[C@@H](Cc1c[nH]cn1)C(=O)N[C@@H](CC(N)=O)C(=O)O)C(C)C)[C@@H](C)CC
B4: AT463 (peptide)
peptide: FISDYSIAMDKIK(C16 diacid)QQDFVNWLLAQKGKK-OH
modifications: N-terminus assumed
SMILES: CC[C@H](C)[C@H](NC(=O)[C@H](CO)NC(=O)[C@H](Cc1ccc(O)cc1)NC(=O)[C@H](CC(=O)O)NC(=O)[C@H](CO)NC(=O)[C@@H](NC(=O)[C@@H](N)Cc1ccccc1)[C@@H](C)CC)C(=O)N[C@@H](C)C(=O)N[C@@H](CCSC)C(=O)N[C@@H](CC(=O)O)C(=O)N[C@@H](CCCCN)C(=O)N[C@H](C(=O)N[C@@H](CCCCNC(=O)CCCCCCCCCCCCCCC(=O)O)C(=O)N[C@@H](CCC(N)=O)C(=O)N[C@@H](CCC(N)=O)C(=O)N[C@@H](CC(=O)O)C(=O)N[C@@H](Cc1ccccc1)C(=O)N[C@H](C(=O)N[C@@H](CC(N)=O)C(=O)N[C@@H](Cc1c[nH]c2ccccc12)C(=O)N[C@@H](CC(C)C)C(=O)N[C@@H](CC(C)C)C(=O)N[C@@H](C)C(=O)N[C@@H](CCC(N)=O)C(=O)N[C@@H](CCCCN)C(=O)NCC(=O)N[C@@H](CCCCN)C(=O)N[C@@H](CCCCN)C(=O)O)C(C)C)[C@@H](C)CC
B5: AT462 (peptide)
peptide: TFISDYKIAMDKIHQQDFVNWLLAQKGKKNDWKHNIT
HELM: PEPTIDE1{T.F.I.S.D.Y.K.I.A.M.D.K.I.H.Q.Q.D.F.V.N.W.L.L.A.Q.K.G.K.K.N.D.W.K.H.N.I.T}|PEPTIDE2{[O=C(O)CCCCCCCCCCCCCCC(=O)[*:2]].[gGlu]}$PEPTIDE1,PEPTIDE2,7:R3-2:R2$$$V2.0; N-terminus assumed
SMILES: CC[C@H](C)[C@H](NC(=O)[C@H](CCCCNC(=O)CC[C@H](NC(=O)CCCCCCCCCCCCCCC(=O)O)C(=O)O)NC(=O)[C@H](Cc1ccc(O)cc1)NC(=O)[C@H](CC(=O)O)NC(=O)[C@H](CO)NC(=O)[C@@H](NC(=O)[C@H](Cc1ccccc1)NC(=O)[C@@H](N)[C@@H](C)O)[C@@H](C)CC)C(=O)N[C@@H](C)C(=O)N[C@@H](CCSC)C(=O)N[C@@H](CC(=O)O)C(=O)N[C@@H](CCCCN)C(=O)N[C@H](C(=O)N[C@@H](Cc1c[nH]cn1)C(=O)N[C@@H](CCC(N)=O)C(=O)N[C@@H](CCC(N)=O)C(=O)N[C@@H](CC(=O)O)C(=O)N[C@@H](Cc1ccccc1)C(=O)N[C@H](C(=O)N[C@@H](CC(N)=O)C(=O)N[C@@H](Cc1c[nH]c2ccccc12)C(=O)N[C@@H](CC(C)C)C(=O)N[C@@H](CC(C)C)C(=O)N[C@@H](C)C(=O)N[C@@H](CCC(N)=O)C(=O)N[C@@H](CCCCN)C(=O)NCC(=O)N[C@@H](CCCCN)C(=O)N[C@@H](CCCCN)C(=O)N[C@@H](CC(N)=O)C(=O)N[C@@H](CC(=O)O)C(=O)N[C@@H](Cc1c[nH]c2ccccc12)C(=O)N[C@@H](CCCCN)C(=O)N[C@@H](Cc1c[nH]cn1)C(=O)N[C@@H](CC(N)=O)C(=O)N[C@H](C(=O)N[C@H](C(=O)O)[C@@H](C)O)[C@@H](C)CC)C(C)C)[C@@H](C)CC

Target: T1, human GIP receptor
Assay: cell-based or functional assay

| Binder | cAMP antagonism | cAMP antagonism % inhib | cAMP antagonism log |
| --- | --- | --- | --- |
| B1 | 16 nM | 90% | -7.8 log M |
| B2 | 50 nM | 100% | -7.3 log M |
| B3 | 28 nM | 86% | -7.6 log M |
| B4 | 14 nM | 88% | -7.8 log M |
| B5 | 37 nM | 85% | -7.4 log M |
